In patent US20180141989A1 (BOARD OF REGENTS OF THE UNIVERSITY OF OKLAHOMA, published 2018):
Each block holds one binder with its values, some of them ahead of it. Where no end group is shown, it is not given here.

Key:
[1] = molecular target: T1, MBP-RAMP1 ECD-(GS)5-CLR ECD-H6 fusion protein (human, UniProt O60894 24-111; Q16602 29-144); test: FP (anisotropy) competition: displaces FITC-Ahx-AM(37-52)NH2[S45W,Q50W] probe (7 nM) from MBP-RAMP1 ECD-(GS)5-CLR ECD-H6 (15 nM) [I-J) lower graph]
T1 construct: range 24-111;range 29-144; Tethered ECD fusion made in E. coli; used in the FP assay at 15 nM; also called MBP-hRAMP1.24-111-(Gly-Ser)5-hCLR.29-144-H6
Protocol: (§1) Fluorescence polarization peptide binding assay. […] The reactions (50 μL) were incubated for 2 hours at room temperature to reach equilibrium, and the anisotropy was measured in black half-area 96-well plates using a BMG LABTECH's POLARstar® Omega plate reader (Ortenberg, Germany). The reaction buffer was 50 mM HEPES, pH 7.5, 150 mM NaCl, 0.5 mg/ml fatty acid-free BSA, 0.5 mM EDTA, 0.5 mM maltose. KI values were calculated using nonlinear regression fitting of the competition curves to the exact analytical equations of Roehrl et al. (Biochemistry (2004) 43:16056-66) using GraphPad Prism 5.0 (GraphPad Software, San Diego Calif.).

[2] = molecular target: T1, MBP-RAMP1 ECD-(GS)5-CLR ECD-H6 fusion …; test: FP competition vs FITC-AM W/W probe, purified ECD fusion
Protocol: as §1
(§2) The large size difference between the MBP-RAMP ECD-CLR ECD fusion proteins (˜65 kDa) and the probe (˜2.5 kDa) ensures a significant anisotropy difference between bound and free states of the probe. […] Kd values for the probe at each of the tethered ECD fusion proteins were determined in equilibrium saturation binding experiments (data not shown), and KI values were determined for unlabeled peptides in equilibrium competition experiments (Table 1; FIGS. 2-5). The data were analyzed according to exact analytical equations using non-linear regression curve fitting in GraphPad Prism 5.0 (GraphPad Software) via user-defined equations.

[3] = molecular target: T1, MBP-RAMP1 ECD-(GS)5-CLR ECD-H6 fusion …; test: ratio of FP KI values at the two ECD complexes
Protocol: as §1, §2

[4] = molecular target: MBP-RAMP2 ECD [L106R]-(GS)5-CLR ECD-H6 fusion protein (human) (UniProt O60895); test: FP competition vs FITC-AM W/W probe, purified ECD fusion
[5] = molecular target: T1, MBP-RAMP1 ECD-(GS)5-CLR ECD-H6 fusion …; test: FP (anisotropy) competition: displaces FITC-Ahx-AM(37-52)NH2[S45W,Q50W] probe (7 nM) from MBP-RAMP1 ECD-(GS)5-CLR ECD-H6 (15 nM) [D-E) panel E]
Protocol: as §1

[6] = molecular target: T1, MBP-RAMP1 ECD-(GS)5-CLR ECD-H6 fusion …; test: FP (anisotropy) competition: displaces FITC-Ahx-AM(37-52)NH2[S45W,Q50W] probe (7 nM) from MBP-RAMP1 ECD-(GS)5-CLR ECD-H6 (15 nM) [I-J) upper graph]
Protocol: as §1

[7] = molecular target: MBP-RAMP2 ECD [L106R]-(GS)5-CLR ECD-H6 fusion protein (human) (UniProt O60895); test: FP (anisotropy) competition: displaces FITC-Ahx-AM(37-52)NH2[S45W,Q50W] probe (7 nM) from MBP-RAMP2 ECD[L106R]-(GS)5-CLR ECD-H6 (110 nM) [I-K) panel J]
[8] = molecular target: T1, MBP-RAMP1 ECD-(GS)5-CLR ECD-H6 fusion …; test: FP (anisotropy) competition: displaces FITC-Ahx-AM(37-52)NH2[S45W,Q50W] probe (7 nM) from MBP-RAMP1 ECD-(GS)5-CLR ECD-H6 (15 nM) [A-C) panel C]
Protocol: as §1

[9] = molecular target: T1, MBP-RAMP1 ECD-(GS)5-CLR ECD-H6 fusion …; test: FP (anisotropy) competition: displaces FITC-Ahx-AM(37-52)NH2[S45W,Q50W] probe (7 nM) from MBP-RAMP1 ECD-(GS)5-CLR ECD-H6 (15 nM) [D-E) panel D]
Protocol: as §1

[10] = molecular target: T2, MBP-RAMP1 ECD-(GS)5-CTR ECD-H6 fusion protein (human, UniProt O60894 27-118; P30988 34-141, limits assumed); test: AlphaLISA competition vs Biotin-AC413 probe, purified AMY1 ECD fusion
T2 construct: extracellular domain; CTR-based proteins were produced in HEK293T cells (N-glycosylated); also called RAMP1-CTR ECD; RAMP1-CTR
Protocol: A single representative experiment conducted with duplicate samples is shown. […] The reactions were incubated for 5 hours at room temperature to reach equilibrium, and the luminescence was measured in white 384-well plates using a BMG LABTECH's POLARstar® Omega plate reader (Ortenberg, Germany). The reaction buffer was 50 mM MOPS, pH 7.4, 150 mM NaCl, 7 mg/ml fatty acid-free BSA and the streptavidin-coated donor beads and MBP-antibody coated acceptor beads were at 15 μg/ml each. IC₅₀ values were calculated using nonlinear regression fitting of the competition curves to a three-parameter, one-site competitive binding equation in GraphPad Prism 5.0 (GraphPad Software, San Diego Calif.).

[11] = molecular target: MBP-RAMP2 ECD [L106R]-(GS)5-CLR ECD-H6 fusion protein (human) (UniProt O60895); test: FP (anisotropy) competition: displaces FITC-Ahx-AM(37-52)NH2[S45W,Q50W] probe (7 nM) from MBP-RAMP2 ECD[L106R]-(GS)5-CLR ECD-H6 (110 nM) [I-K) panel I]
[12] = molecular target: T1, MBP-RAMP1 ECD-(GS)5-CLR ECD-H6 fusion …; test: FP (anisotropy) competition: displaces FITC-Ahx-AM(37-52)NH2[S45W,Q50W] probe (7 nM) from MBP-RAMP1 ECD-(GS)5-CLR ECD-H6 (15 nM) [F-H) panel H]
Protocol: as §1

[13] = molecular target: T1, MBP-RAMP1 ECD-(GS)5-CLR ECD-H6 fusion …; test: FP (anisotropy) competition: displaces FITC-Ahx-AM(37-52)NH2[S45W,Q50W] probe (7 nM) from MBP-RAMP1 ECD-(GS)5-CLR ECD-H6 (15 nM) [A-C) panel B]
Protocol: as §1
as §1, with “Single representative experiments conducted with duplicate samples are shown.” for “Fluorescence polarization peptide binding assay.”, “reactions” for “reactions (50 μL)”

[14] = molecular target: T1, MBP-RAMP1 ECD-(GS)5-CLR ECD-H6 fusion …; test: FP (anisotropy) competition: displaces FITC-Ahx-AM(37-52)NH2[S45W,Q50W] probe (7 nM) from MBP-RAMP1 ECD-(GS)5-CLR ECD-H6 (15 nM) [A-C) panel C]; remark: listed apart in the source
Protocol: as §1
as §1, with “Single representative experiments conducted with duplicate samples are shown.” for “Fluorescence polarization peptide binding assay.”, “reactions” for “reactions (50 μL)”

T1 sequence (O60894 other isoform, or with tags, fused parts or gaps limits assumed, form in doubt): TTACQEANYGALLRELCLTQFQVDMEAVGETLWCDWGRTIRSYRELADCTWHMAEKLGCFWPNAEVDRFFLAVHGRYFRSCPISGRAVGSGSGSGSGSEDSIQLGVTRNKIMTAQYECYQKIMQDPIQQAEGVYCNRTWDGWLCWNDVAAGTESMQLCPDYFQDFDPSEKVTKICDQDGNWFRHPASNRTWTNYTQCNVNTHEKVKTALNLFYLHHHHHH
Sequence of MBP-RAMP2 ECD [L106R]-(GS)5-CLR ECD-H6 fusion protein (human) (O60895 other isoform, or with tags, fused parts or gaps L106R L106R): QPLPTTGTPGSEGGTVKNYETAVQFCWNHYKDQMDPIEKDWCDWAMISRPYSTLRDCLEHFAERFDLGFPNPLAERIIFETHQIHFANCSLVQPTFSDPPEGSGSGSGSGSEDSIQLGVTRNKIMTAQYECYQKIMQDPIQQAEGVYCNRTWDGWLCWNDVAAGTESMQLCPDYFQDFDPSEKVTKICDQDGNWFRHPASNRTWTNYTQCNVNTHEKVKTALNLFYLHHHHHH
T2 sequence (O60894 other isoform, or with tags, fused parts or gaps limits assumed): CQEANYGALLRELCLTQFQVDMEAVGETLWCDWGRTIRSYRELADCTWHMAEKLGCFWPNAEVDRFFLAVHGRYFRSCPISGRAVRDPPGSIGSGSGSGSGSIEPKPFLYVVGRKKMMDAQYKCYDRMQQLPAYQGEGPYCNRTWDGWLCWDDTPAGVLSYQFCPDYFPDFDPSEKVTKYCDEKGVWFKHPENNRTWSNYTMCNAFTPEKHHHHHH

IC50 (read off the curve) [1]: ~10 nM
B1: AM(37-52) D37V/S45W/K46L/Q50W/Y52F (peptide)
peptide: VKDNVAPRWLISPWGF-NH2
notes: also called AM(37-52)NH2 [D37V, S45W, K46L, Q50W, Y52F]

Ki [2]: 24 nM
pKI [2]: 7.62
Receptor Selectivity (fold, over RAMP2-CLR ECD) [3]: 692 fold
Ki [4]: 16600 nM
pKI [4]: 4.78
IC50 (read off the curve) [5]: ~70 nM
B2: AM(37-52)NH2 [S45W, K46W, Q50W, Y52F] (peptide)
peptide: DKDNVAPRWWISPWGF-NH2

IC50 (read off the curve) [6]: ~100 nM
IC50 (read off the curve) [7]: 700 nM
B3: AM(37-52) S45R/K46W/S48G/Q50W (peptide)
peptide: DKDNVAPRRWIGPWGY-NH2
notes: also called AM(37-52)NH2 [S45R, K46W, S48G, Q50W]

Ki [2]: 7.94 nM
pKI [2]: 8.1
Receptor Selectivity (fold, over RAMP2-CLR ECD) [3]: 977 fold
Ki [4]: 7760 nM
pKI [4]: 5.11
IC50 (read off the curve) [5]: ~30 nM
B4: AM(37-52)NH2 [S45W, K46M, Q50W, Y52F] (peptide)
peptide: DKDNVAPRWMISPWGF-NH2

Ki [2]: 31.6 nM
pKI [2]: 7.5
Receptor Selectivity (fold, over RAMP2-CLR ECD) [3]: 2820 fold
IC50 (read off the curve) [8]: ~100 nM
Ki [4]: 89100 nM
pKI [4]: 4.05
B5: AM(37-52)NH2 [K46L, Q50W, Y52F] (peptide)
peptide: DKDNVAPRSLISPWGF-NH2

Ki [2]: 82.2 nM
pKI [2]: 7.1
IC50 (read off the curve) [9]: ~200 nM
Receptor Selectivity (fold, over RAMP2-CLR ECD) [3]: 22 fold
Ki [4]: 1830 nM
pKI [4]: 5.74
B6: AM(37-52)NH2 [D39F, K46L, Q50W] (peptide)
peptide: DKFNVAPRSLISPWGY-NH2

IC50 (read off the curve) [6]: ~20 nM
IC50 (read off the curve) [7]: 90 nM
B7: AM(37-52) S45R/K46L/S48G/Q50W (peptide)
peptide: DKDNVAPRRLIGPWGY-NH2
notes: also called AM(37-52)NH2 [S45R, K46L, S48G, Q50W]

Ki [2]: 70.8 nM
pKI [2]: 7.15
Receptor Selectivity (fold, over RAMP2-CLR ECD) [3]: 23 fold
IC50 (read off the curve) [8]: ~100 nM
Ki [4]: 1660 nM
pKI [4]: 5.78
B8: AM(37-52)NH2 [K46L, Q50W] (peptide)
peptide: DKDNVAPRSLISPWGY-NH2

IC50 [10]: 16000 nM
Ki [2]: 1.91 nM
pKI [2]: 8.72
IC50 (read off the curve) [9]: ~20 nM
Receptor Selectivity (fold, over RAMP2-CLR ECD) [3]: 2130 fold
Ki [4]: 4070 nM
pKI [4]: 5.39
B9: AM(37-52)NH2 [S45W, K46L, Q50W, Y52F] (peptide)
peptide: DKDNVAPRWLISPWGF-NH2

IC50 (read off the curve) [11]: 300 nM
IC50 (read off the curve) [12]: ~90 nM
B10: AM(37-52) S45R/K46L/Q50W (peptide)
peptide: DKDNVAPRRLISPWGY-NH2
notes: also called AM(37-52)NH2 [S45R, K46L, Q50W]

Ki [2]: 25 nM
pKI [2]: 7.61
IC50 (read off the curve) [9]: ~80 nM
Receptor Selectivity (fold, over RAMP2-CLR ECD) [3]: 1210 fold
Ki [4]: 30300 nM
pKI [4]: 4.55
B11: AM(37-52)NH2 [D39F, K46L, Q50W, Y52F] (peptide)
peptide: DKFNVAPRSLISPWGF-NH2

IC50 (read off the curve) [11]: 2000 nM
IC50 (read off the curve) [12]: ~300 nM
B12: AM(37-52) S45R/K46W/Q50W (peptide)
peptide: DKDNVAPRRWISPWGY-NH2
notes: also called AM(37-52)NH2 [S45R, K46W, Q50W]

IC50 (read off the curve) [6]: ~100 nM
IC50 (read off the curve) [7]: 1000 nM
B13: AM(37-52) S45R/K46W/I47L/S48G/Q50W (peptide)
peptide: DKDNVAPRRWLGPWGY-NH2
notes: also called AM(37-52)NH2 [S45R, K46W, I47L, S48G, Q50W]

Ki [2]: 440 nM
pKI [2]: 6.36
Receptor Selectivity (fold, over RAMP2-CLR ECD) [3]: 28 fold
Ki [4]: 12500 nM
pKI [4]: 4.9
B14: AM(37-52)NH2[S45T, K46W, Q50W] (peptide)
peptide: DKDNVAPRTWISPWGY-NH2

Ki [4]: 6100 nM
pKI [4]: 5.22
B15: AM(37-52)NH2 [D39K] (peptide)
peptide: DKKNVAPRSKISPQGY-NH2

IC50 (read off the curve) [13]: ~20 nM
Ki [2]: 2.95 nM
pKI [2]: 8.53
B16: CGRP(27-37)NH2 [N31D, S34P, K35F, A36S] (peptide)
peptide: FVPTDVGPFSF-NH2

Ki [2]: 17.6 nM
pKI [2]: 7.75
Receptor Selectivity (fold, over RAMP2-CLR ECD) [3]: 821 fold
Ki [4]: 14500 nM
pKI [4]: 4.84
B17: CGRP(27-37)NH2 [N31D, V32T, S34P, K35W, A36G, F37Y] (peptide)
peptide: FVPTDTGPWGY-NH2

Ki [2]: 1.32 nM
pKI [2]: 8.88
Receptor Selectivity (fold, over RAMP2-CLR ECD) [3]: 245 fold
IC50 (read off the curve) [14]: ~20 nM
Ki [4]: 324 nM
pKI [4]: 6.49
B18: CGRP(27-37)NH2 [N31D, S34P, K35W, A36S, F37Y] (peptide)
peptide: FVPTDVGPWSY-NH2

IC50 (read off the curve) [13]: ~20 nM
Ki [2]: 8.13 nM
pKI [2]: 8.09
B19: CGRP(27-37)NH2 [N31D, S34P, K35W] (peptide)
peptide: FVPTDVGPWAF-NH2
